The results in this text go back to patent US20250387497A1 (PURDUE RESEARCH FOUNDATION, published 2025).

“And” between values parts separate entries of the source, which are not always exact repeats. Equal entries are not always repeated. Bounds are passed on as bounds.

Test [1] deals with T1, fibroblast growth factor receptor 3 (FGFR3).
T1 chain: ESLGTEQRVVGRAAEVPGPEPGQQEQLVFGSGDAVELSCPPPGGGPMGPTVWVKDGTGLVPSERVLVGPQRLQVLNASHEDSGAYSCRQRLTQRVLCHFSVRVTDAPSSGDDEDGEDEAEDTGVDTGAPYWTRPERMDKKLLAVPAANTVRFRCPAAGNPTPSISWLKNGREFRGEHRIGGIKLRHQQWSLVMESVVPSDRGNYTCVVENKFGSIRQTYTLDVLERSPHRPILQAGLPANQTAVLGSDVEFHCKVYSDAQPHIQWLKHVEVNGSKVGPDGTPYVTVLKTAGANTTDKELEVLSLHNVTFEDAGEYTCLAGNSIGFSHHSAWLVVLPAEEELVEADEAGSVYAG
In words: binding affinity, method not stated.

In test [2] the target is interleukin-4 receptor alpha (IL-4Rα). In words: binding affinity, method not stated.
interleukin-4 receptor alpha (IL-4Rα), sequence (chain, as listed by the source): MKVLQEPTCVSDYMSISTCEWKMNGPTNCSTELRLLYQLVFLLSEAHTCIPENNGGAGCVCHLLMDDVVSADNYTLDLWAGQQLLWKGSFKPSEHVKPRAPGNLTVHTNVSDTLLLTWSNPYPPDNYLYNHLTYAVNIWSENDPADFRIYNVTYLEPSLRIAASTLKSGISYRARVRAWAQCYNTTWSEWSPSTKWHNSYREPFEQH

B1: peptide "F", binding motif for FGFR3, VSPPLTLGQLLS (peptide)
peptide: VSPPLTLGQLLS
Turning to B1, the Kd (usually the free concentration of one partner at which half of the binding sites on the other are occupied at equilibrium, for simple one-to-one binding) in test [1] was ~1000 nM and 1000 nM.

B2: peptide "I", binding motif for IL-4Rα, KLAKLAKKLAKLAK (peptide)
peptide: KLAKLAKKLAKLAK
For B2, the dissociation constant Kd in test [2] is < 60 µM and 55.9 µM.
